Assay results reported in paper PMC1266348, “HIV-1 reverse transcriptase mutations that confer decreased in vitro susceptibility to anti-RT DNA aptamer RT1t49 confer cross resistance to other anti-RT aptamers but not to standard RT inhibitors”.

Target: HIV-1 RT wild type (HIV-1, UniProt P04585;P04585 588-1147;588-1027)
Experiment: competition (inhibition of polymerase activity); 6 mM Mg2+; 24 nM template-primer; 80 mM KCl, 50 mM Tris-Cl pH 8.0, 6 mM MgCl2, 1 mM DTT, 0.1 mg/ml BSA, 24 nM template-primer (16S rRNA/VP200), dNTPs, 25 ng RT per 50 ul, 37 C, 15 min; IC50 of p
Conditions: protein: recombinant; copies: 1;1

**Q.** Which IC50 does the source give for ATCCGCCTGATTAGCGATACTCAGAAGGATAAACTGTCCAGAACTTGGA (ssDNA) [RT1t49] here?
**A.** 1.5 ± 0.03 nM
